# According to patent US20110064740A1 (GlaxoSmithKline, published 2011):
# Ends that are not written are not given here. * marks the point of attachment. Biotin = O=C1N[C@H]2[C@H](CS[C@H]2CCCCC(=O)*)N1
# B1: Humanised 2E7 variant H2L1 (antibody, human IgG1, kappa, V domains shown)
# VH: EVQLVESGGGLVQPGGSLRLSCAVSGFTFSDNGMAWVRQAPGKGLEWVSFISNLAYSIDYADTVTGRFTISRDNAKNSLYLQMNSLRAEDTAVYYCVSGTWFAYWGQGTLVTVSS
# VL: DIVMTQSPLSLPVTPGEPASISCRVSQSLLHSNGYTYLHWYLQKPGQSPQLLIYKVSNRFSGVPDRFSGSGSGTDFTLKISRVEAEDVGVYYCSQTRHVPYTFGGGTKVEIKR
# notes: Human IgG1 with L235A and G237A, human kappa; also called L1+H2; H2L1 whole IgG
# B2: Mouse monoclonal antibody 2E7 (antibody, mouse IgG2a, V domains shown)
# VH: EVKLVESGGGLVQPGGSLKLSCAVSGFTFSDNGMAWVRQAPRKGPEWIAFISNLAYSIDYADTVTGRFTISRDNAKNTLYLEMSSLRSEDTAMYYCVSGTWFAYWGQGTLVTVSA
# VL: DVVLTQTPLSLPVSLGDQASISCRVSQSLLHSNGYTYLHWYLQKPGQSPKLLIYKVSNRFSGVPDRFSGSGSGTDFTLKISRVEAEDLGVYFCSQTRHVPYTFGGGTKLEIK
# notes: Murine IgG2a heavy chain, murine kappa light chain; also called 2E7 MAb; parental mouse 2E7 MAb
# Experiments:
# [1] = target: T1, human Aβ peptide (length not stated) (human, UniProt P05067 672-711); test: competition ELISA, β-amyloid in solution pre-incubated with the antibody; competitor: immobilised mouse 2E7; Experiment 2
# T1 construct: also called β-amyloid in solution
# Experimental: (§1) 2) β-amyloid in solution; a constant concentration of β-amyloid was pre-incubated with a dilution series of humanised 2E7 antibody variants—the mixture including complexed and free amyloid was added for a short time to wells containing immobilised mouse 2E7 MAb. The amount of free β-amyloid that was still available for binding the immobilised parental 2E7 MAb was then detected.
# [2] = target: T2, human Aβ peptide (1-40) biotinylated at the C terminus (human, UniProt P05067 672-711, biotinylated at the C-terminus); test: competition ELISA, biotinylated human Aβ (1-40) on streptavidin plate; competitor: mouse 2E7 at constant concentration; Experiment 1
# T2 construct: domain: β-amyloid peptide (1-40); Numbers 1-40 count on the β-amyloid peptide, not on APP; also called beta-amyloid 1-40 peptide (biotinylated at the C-terminus); streptavidin-captured beta-amyloid (1-40)
# Experimental: (§2) Two types of competition ELISA were established in order to compare the Aβ binding activity of the three humanised variants compared to the 2E7 chimeric antibody. 1) Immobilised β-amyloid; biotinylated human Aβ peptide (1-40) was immobilized through Streptavidin on ELISA plates Mouse 2E7 antibody was added at a constant concentration along with a dilution series of 2E7-derived humanised variant antibodies. Bound mouse 2E7 MAb was then detected with anti-mouse IgG conjugate.
# [3] = target: T2, human Aβ peptide (1-40) biotinylated at …; test: SPR Biacore 3000, Method A(i): C-terminally biotinylated β-amyloid 1-40 on streptavidin chip, antibody as analyte; Run 2
# Experimental: (§3) (i) Briefly, <20 resonance units of beta-amyloid 1-40 peptide (biotinylated at the C-terminus) were captured on a streptavidin biosensor chip (as used for Table 10A). The antibodies were diluted down in HBS-EP buffer and passed over the streptavidin/beta-amyloid surface at concentrations ranging from 0.001 nM-8 nM (for Table 10A). Two separate runs were carried out; each run was carried out on a new streptavidin/beta-amyloid surface. Runs 1 and 2 were essentially the same though there were some differences in the parameters used; Run 1 was carried out using a chip surface on which 16 RU's of beta-amyloid were captured, and antibody concentrations of 0.001 nM-8 nM were used, an association time of 4 minutes and a dissociation time of 20 minutes were used at a flow rate of 50 μl per minute. For Run 2, less than 10 RU's of beta-amyloid were captured and antibody concentrations of 0.003125 nM-8 nM were used. The flow rate and association times were the same as Run 1, however the dissociation time was reduced to 15 minutes. (ii) Beta amyloid (1-40) and (1-42) were amine-coupled on different surfaces of a CM5 biosensor chip to a level of <20 resonance units (as used for Table 10B). The antibodies were diluted down in HBS-EP buffer and passed over the biosensor/beta-amyloid surface at concentrations ranging from 1 nM-64 nM (as used for Table 10B).
# (§4) In both methods, regeneration was via a pulse of 100 mM H₃PO₄, and for Table 10A data also followed by a pulse of 50 mM NaOH. […] All runs were double referenced against buffer blank injections. Analysis was carried out using the Biacore™ analysis software BIAevaluation version 4.1.
# [4] = target: T1, human Aβ peptide (length not stated); test: competition ELISA, β-amyloid in solution pre-incubated with the antibody; competitor: immobilised mouse 2E7; Experiment 1
# Experimental: as §1
# [5] = target: T2, human Aβ peptide (1-40) biotinylated at …; test: Aβ binding ELISA, human Aβ (1-40) biotinylated at the C terminus
# [6] = target: T2, human Aβ peptide (1-40) biotinylated at …; test: SPR Biacore 3000, Method A(i): C-terminally biotinylated β-amyloid 1-40 on streptavidin chip, antibody as analyte; Average(SD) of two runs
# Experimental: as §3, §4
# [7] = target: T2, human Aβ peptide (1-40) biotinylated at …; test: Aβ binding ELISA, human Aβ (1-40) biotinylated at the C terminus; remark: listed apart in the source
# [8] = target: T3, Peptide Aβ2-13, AEFRHDSGYEVHGSGK-biotin; test: Biacore, peptide on streptavidin chip
# T3 construct: The range counts on the β-amyloid peptide; also called 2-13 peptide; β-amyloid peptide 2-13
# T3 peptide: Ac-AEFRHDSGYEVHGSGK(Biotin)
# Experimental: (§5) In addition to the experiments described above, the Biacore™ 3000 optical biosensor was used to monitor the binding of 2E7 antibody to selected β-amyloid sequence derived peptides. Binding was measured by injecting test antibodies at up to 64 nM for 5 minute over peptides captured on separate streptavidin chip surfaces (130-230 RU (resonance units)). A running buffer (HBS-EP) containing 0.01 M HEPES pH7.4, 0.15 M NaCl, 3 mM EDTA and 0.005% Surfactant P20™ at 25° C. was used at a flow rate of 20 ul/min. All runs were double referenced against a blank streptavidin surface and blank injections. Analysis was carried out using the Biacore™ analysis software BIAevaluation™ version 4.1.
# (§6) In a study similar to the epitope mapping study on 2E7 using the Surface Plasmon Resonance assay described above, H2L1 behaved similarly to 2E7 in binding to the peptide encompassing amino acids 1-12 (Aβ1, SEQ ID No:15) of the β-amyloid peptide and not to the peptide encompassing amino acids 2-13 of the β-amyloid peptide (Aβ2-13, SEQ ID No:44).
# [9] = target: T2, human Aβ peptide (1-40) biotinylated at …; test: Aβ binding ELISA, human Aβ (1-40) biotinylated at the C terminus; remark: listed apart in the source
# [10] = target: T2, human Aβ peptide (1-40) biotinylated at …; test: Aβ binding ELISA with culture supernatant, Aβ peptide (1-40)
# [11] = target: T2, human Aβ peptide (1-40) biotinylated at …; test: SPR Biacore 3000, Method A(i): C-terminally biotinylated β-amyloid 1-40 on streptavidin chip, antibody as analyte; Run 1
# Experimental: as §3, §4
# [12] = target: T2, human Aβ peptide (1-40) biotinylated at …; test: competition ELISA, biotinylated human Aβ (1-40) on streptavidin plate; competitor: mouse 2E7 at constant concentration; Experiment 2
# Experimental: as §2
# [13] = target: T4, human beta-amyloid peptide (1-40) (human, UniProt P05067 672-711); test: SPR Biacore 3000, Method B: antibody captured on protein A surface, β-amyloid 4-500 nM as analyte; n = 3; peptide length not given
# T4 construct: domain: beta-amyloid peptide (1-40); Unlabelled peptide: amine-coupled to a CM5 chip (Method A(ii)) or in solution as analyte (Method B); also called beta-amyloid (1-40)
# Experimental: (§7) In the second instance the assay was reversed, in that antibodies were first captured to a level of 1000-2500 resonance units on an anti-mouse IgG polyclonal antibody surface (for recombinant mouse 2E7 MAb) or a protein A surface (for humanized H2L1) of a CM5 biosensor chip. Freshly prepared beta-amyloid (1-40) or (1-42) was diluted down in HBS-EP buffer and passed over the captured-antibody surface at concentrations ranging from 4-500 nM (Table 10C and 10D).
# as §4
# [14] = target: T5, human beta-amyloid peptide (1-42) (human, UniProt P05067 672-713); test: SPR Biacore 3000, Method A(ii): β-amyloid amine-coupled to CM5 chip, antibody 1-64 nM as analyte
# T5 construct: domain: beta-amyloid peptide (1-42); Unlabelled peptide: amine-coupled to a CM5 chip (Method A(ii)) or in solution as analyte (Method B); also called beta-amyloid (1-42)
# Experimental: as §3, §4
# [15] = target: T4, human beta-amyloid peptide (1-40); test: as above
# Experimental: as §3, §4
# [16] = target: T6, Peptide APP1, AcNH-SEVKMDAEFRHDGSGK-biotin; test: Biacore, peptide on streptavidin chip
# T6 construct: also called APP derived peptide APP1
# T6 peptide: Ac-SEVKMDAEFRHDGSGK(Biotin)
# Experimental: as §5, §6
# [17] = target: T7, Set (B) peptide encompassing amino acids 1-6 of the β-amyloid peptide, DAEFRH--GSGGSGGSGK-biotin; test: SRU BIND biosensor, peptide set (B)
# T7 peptide: DAEFRHGSGGSGGSGK(Biotin)
# [18] = target: T8, Set (B) peptide encompassing amino acids 1-7 of the β-amyloid peptide, DAEFRHD--GSGGSGGSK-biotin; test: SRU BIND biosensor, peptide set (B)
# T8 peptide: DAEFRHDGSGGSGGSK(Biotin)
# [19] = target: T9, Set (B) peptide encompassing amino acids 1-5 of the β-amyloid peptide, DAEFR--GSGGSGGSGSK-biotin; test: SRU BIND biosensor, peptide set (B)
# T9 peptide: DAEFRGSGGSGGSGSK(Biotin)
# [20] = target: T3, Peptide Aβ2-13, AEFRHDSGYEVHGSGK-biotin; test: Biacore 3000, peptide on streptavidin chip
# Experimental: as §5
# In a separate experiment the β-amyloid 1-40 peptide was captured via its N-terminal aspartic acid residue that had been biotinylated. This peptide was captured onto a Biacore™ streptavidin coated chip as previously described. Antibody 2E7 injected at 66 nM for 1 minute could not bind this peptide. Therefore, it is concluded that the previously descibed N-terminal binding site was masked by the linker and capture method, thus further confirming the extreme N-terminus as containing the core binding site
# [21] = target: T4, human beta-amyloid peptide (1-40); test: SPR Biacore 3000, Method B: antibody captured on anti-mouse IgG surface, β-amyloid 4-500 nM as analyte; n = 3; peptide length not given
# Experimental: as §7, §4
# T5 sequence (P05067 672-713 limits assumed): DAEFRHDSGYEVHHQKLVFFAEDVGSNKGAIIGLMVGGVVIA
# T4 sequence (P05067 672-711 limits assumed): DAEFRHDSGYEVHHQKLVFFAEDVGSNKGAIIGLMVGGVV
# T2 sequence (P05067 672-711 limits assumed): as above
# T1 sequence (P05067 672-711): as the sequence (P05067 672-711 limits assumed) above
binder,measurement,setting,value
B1,IC50,[1],0.119 µg/mL
same,IC50,[2],1.28 µg/mL
same,Kd,[3],0.0498 nM
same,IC50,[4],0.075 µg/mL
same,EC50,[5],0.044 µg/mL
same,Kd,[6],0.054 nM
same,EC50,[7],0.048 µg/mL
same,binding result,[8],no binding
same,EC50,[9],0.041 µg/mL
same,EC50,[10],0.113 µg/mL
same,Kd,[11],0.0581 nM
same,IC50,[12],1.66 µg/mL
same,Kd,[13],7.32 nM
same,koff,[13],0.00075 s⁻¹
same,kon,[13],106000 M⁻¹ s⁻¹
same,Kd,[14],0.456 nM
same,koff,[14],0.000155 s⁻¹
same,kon,[14],340000 M⁻¹ s⁻¹
same,Kd,[15],0.366 nM
same,koff,[15],0.000122 s⁻¹
same,kon,[15],333000 M⁻¹ s⁻¹
B2,Kd,[3],0.0338 nM
same,Kd,[6],0.0361 nM
same,binding result,[16],no binding
same,binding result,[17],binds
same,binding result,[18],binds
same,binding result,[19],binds
same,binding result,[20],no binding (tested: up to 64 nM)
same,Kd,[21],1.58 nM
same,koff,[21],0.000428 s⁻¹
same,kon,[21],283000 M⁻¹ s⁻¹
same,Kd,[11],0.0383 nM
same,Kd,[14],0.394 nM
same,koff,[14],0.000151 s⁻¹
same,kon,[14],382000 M⁻¹ s⁻¹
same,Kd,[15],0.317 nM
same,koff,[15],0.000128 s⁻¹
same,kon,[15],405000 M⁻¹ s⁻¹
